± gives the uncertainty stated by the source.

B1: Double-stranded RNA-binding protein Staufen homolog 1, residues 183 to 249; numbered along this chain, O95793 (parent)
chain: KSEISQVFEIALKRNLPVNFEVARESGPPHMKNFVTKVSVGEFVGEGEGKSKKISKKNAAIAVLEEL

The series covers variants of B1. Description: abundance fitness (aPCA) (normalised: wild type 0, dead -1); higher = more abundant; growth selection in yeast, the domain comes from the species named. The following applies: Homo sapiens.
Consider KSTISQVFEIALKRNLPVNFEVARESGPPHMKNFVTKVSVGEFVGEGEGKSKKISKKNAAIAVLEEL, for which the abundance fitness was -0.236 ± 0.056. For the variant KSGISQVFEIALKRNLPVNFEVARESGPPHMKNFVTKVSVGEFVGEGEGKSKKISKKNAAIAVLEEL, the abundance fitness was -0.551 ± 0.04. Turning to KSCISQVFEIALKRNLPVNFEVARESGPPHMKNFVTKVSVGEFVGEGEGKSKKISKKNAAIAVLEEL, the abundance fitness is -0.205 ± 0.064. In the case of KSIISQVFEIALKRNLPVNFEVARESGPPHMKNFVTKVSVGEFVGEGEGKSKKISKKNAAIAVLEEL, the abundance fitness is -0.001 ± 0.082. With KSFISQVFEIALKRNLPVNFEVARESGPPHMKNFVTKVSVGEFVGEGEGKSKKISKKNAAIAVLEEL the figure was -0.177 ± 0.07; with KSHISQVFEIALKRNLPVNFEVARESGPPHMKNFVTKVSVGEFVGEGEGKSKKISKKNAAIAVLEEL, -0.219 ± 0.072. In the case of KSKISQVFEIALKRNLPVNFEVARESGPPHMKNFVTKVSVGEFVGEGEGKSKKISKKNAAIAVLEEL it was -0.194 ± 0.072; in that of KWEISQVFEIALKRNLPVNFEVARESGPPHMKNFVTKVSVGEFVGEGEGKSKKISKKNAAIAVLEEL, -0.902 ± 0.16; in that of KDEISQVFEIALKRNLPVNFEVARESGPPHMKNFVTKVSVGEFVGEGEGKSKKISKKNAAIAVLEEL, -0.382 ± 0.072. In the case of KEEISQVFEIALKRNLPVNFEVARESGPPHMKNFVTKVSVGEFVGEGEGKSKKISKKNAAIAVLEEL it was -0.381 ± 0.082; in that of KHEISQVFEIALKRNLPVNFEVARESGPPHMKNFVTKVSVGEFVGEGEGKSKKISKKNAAIAVLEEL, -0.546 ± 0.096; in that of KIEISQVFEIALKRNLPVNFEVARESGPPHMKNFVTKVSVGEFVGEGEGKSKKISKKNAAIAVLEEL, -1.02 ± 0.26. As for KTEISQVFEIALKRNLPVNFEVARESGPPHMKNFVTKVSVGEFVGEGEGKSKKISKKNAAIAVLEEL, the abundance fitness was -0.235 ± 0.052. With KCEISQVFEIALKRNLPVNFEVARESGPPHMKNFVTKVSVGEFVGEGEGKSKKISKKNAAIAVLEEL the figure was -0.482 ± 0.11; with KYEISQVFEIALKRNLPVNFEVARESGPPHMKNFVTKVSVGEFVGEGEGKSKKISKKNAAIAVLEEL, -0.653 ± 0.087; with KGEISQVFEIALKRNLPVNFEVARESGPPHMKNFVTKVSVGEFVGEGEGKSKKISKKNAAIAVLEEL, -0.136 ± 0.052. Consider KREISQVFEIALKRNLPVNFEVARESGPPHMKNFVTKVSVGEFVGEGEGKSKKISKKNAAIAVLEEL, for which the abundance fitness is -0.382 ± 0.048. With KAEISQVFEIALKRNLPVNFEVARESGPPHMKNFVTKVSVGEFVGEGEGKSKKISKKNAAIAVLEEL the figure was -0.41 ± 0.051; with KFEISQVFEIALKRNLPVNFEVARESGPPHMKNFVTKVSVGEFVGEGEGKSKKISKKNAAIAVLEEL, -0.709 ± 0.098; with KPEISQVFEIALKRNLPVNFEVARESGPPHMKNFVTKVSVGEFVGEGEGKSKKISKKNAAIAVLEEL, -0.328 ± 0.051. In the case of KVEISQVFEIALKRNLPVNFEVARESGPPHMKNFVTKVSVGEFVGEGEGKSKKISKKNAAIAVLEEL it was -0.7 ± 0.11; in that of KKEISQVFEIALKRNLPVNFEVARESGPPHMKNFVTKVSVGEFVGEGEGKSKKISKKNAAIAVLEEL, -0.015 ± 0.099. Consider KQEISQVFEIALKRNLPVNFEVARESGPPHMKNFVTKVSVGEFVGEGEGKSKKISKKNAAIAVLEEL, for which the abundance fitness was -0.305 ± 0.076. In the case of CSEISQVFEIALKRNLPVNFEVARESGPPHMKNFVTKVSVGEFVGEGEGKSKKISKKNAAIAVLEEL it was -0.177 ± 0.1; in that of VSEISQVFEIALKRNLPVNFEVARESGPPHMKNFVTKVSVGEFVGEGEGKSKKISKKNAAIAVLEEL, -0.335 ± 0.054.

In the case of YSEISQVFEIALKRNLPVNFEVARESGPPHMKNFVTKVSVGEFVGEGEGKSKKISKKNAAIAVLEEL, the abundance fitness was -0.211 ± 0.11.

For the variant RSEISQVFEIALKRNLPVNFEVARESGPPHMKNFVTKVSVGEFVGEGEGKSKKISKKNAAIAVLEEL, the abundance fitness was -0.178 ± 0.048. SSEISQVFEIALKRNLPVNFEVARESGPPHMKNFVTKVSVGEFVGEGEGKSKKISKKNAAIAVLEEL: the abundance fitness is -0.316 ± 0.071. In the case of ASEISQVFEIALKRNLPVNFEVARESGPPHMKNFVTKVSVGEFVGEGEGKSKKISKKNAAIAVLEEL it was -0.436 ± 0.11; in that of ISEISQVFEIALKRNLPVNFEVARESGPPHMKNFVTKVSVGEFVGEGEGKSKKISKKNAAIAVLEEL, -0.201 ± 0.092. With HSEISQVFEIALKRNLPVNFEVARESGPPHMKNFVTKVSVGEFVGEGEGKSKKISKKNAAIAVLEEL, the abundance fitness was -0.738 ± 0.2. In the case of LSEISQVFEIALKRNLPVNFEVARESGPPHMKNFVTKVSVGEFVGEGEGKSKKISKKNAAIAVLEEL it was -0.3 ± 0.052; in that of NSEISQVFEIALKRNLPVNFEVARESGPPHMKNFVTKVSVGEFVGEGEGKSKKISKKNAAIAVLEEL, -0.079 ± 0.12. In the case of TSEISQVFEIALKRNLPVNFEVARESGPPHMKNFVTKVSVGEFVGEGEGKSKKISKKNAAIAVLEEL it was -0.166 ± 0.065. In the case of GSEISQVFEIALKRNLPVNFEVARESGPPHMKNFVTKVSVGEFVGEGEGKSKKISKKNAAIAVLEEL it was -0.175 ± 0.044. With DSEISQVFEIALKRNLPVNFEVARESGPPHMKNFVTKVSVGEFVGEGEGKSKKISKKNAAIAVLEEL, the abundance fitness is -0.235 ± 0.095. As for ESEISQVFEIALKRNLPVNFEVARESGPPHMKNFVTKVSVGEFVGEGEGKSKKISKKNAAIAVLEEL, the abundance fitness was -0.263 ± 0.081.

Turning to FSEISQVFEIALKRNLPVNFEVARESGPPHMKNFVTKVSVGEFVGEGEGKSKKISKKNAAIAVLEEL, the abundance fitness is -0.602 ± 0.28. Regarding WSEISQVFEIALKRNLPVNFEVARESGPPHMKNFVTKVSVGEFVGEGEGKSKKISKKNAAIAVLEEL, the abundance fitness is -0.514 ± 0.073.

These data come from the Human Domainome abundance scans (Beltran et al. 2025).
